This note sets out measurements from FireProtDB (doi:10.1021/bi00146a008).

The labels stand for the following.
B1: Lysozyme C, P61626 (parent)
chain: MKALIVLGLVLLSVTVQGKVFERCELARTLKRLGMDGYRGISLANWMCLAKWESGYNTRATNYNAGDRSTDYGIFQINSRYWCNDGKTPGAVNACHLSCSALLQDNIADAVACAKRVVRDPQGIRAWVAWRNRCQNRDVRQYVQGCGV

The series covers variants of B1. The following applies: Homo sapiens, pH 2.8, Thermal, DSC, glycine-HCl 50 mM, reversible: yes, structure 1LZ1, whole UniProt chain shown.

Regarding MKALIVLGLVLLSVTVQGKVFERCELARTLKRLGMDGYRGISLANWMCLAKWESGYNTRATNYNAGDRSTDYGIFQINSRYWCNDGKTPGAVNACHLSCSALLQDNIAPAVACAKRVVRDPQGIRAWVAWRNRCQNRDVRQYVQGCGV [D109P], the Tm is 67.7 °C; the “change of melting temperature, mutant - wild type (higher = more stable)” value (from here on “change of melting temperature, mutant”) is -1.1 °C; the “heat capacity change of unfolding” value was found to be 1.57 kcal/mol/K. Under “68.8 °C”, the “ddG of mutation (higher = less stable)” value came out at 0.4 kcal/mol, the “heat capacity change of unfolding” value turned out to be 1.57 kcal/mol/K and the “unfolding enthalpy (calorimetric)” value was 115 kcal/mol.

As to MKALIVLGLVLLSVTVQGKVFERCELARTLKRLGMDGYRGISLANWMCLAKWESGYNTRATNYNAGDRSTDYGIFQINSRYWCNDGKTGGAVNACHLSCSALLQDNIADAVACAKRVVRDPQGIRAWVAWRNRCQNRDVRQYVQGCGV [P89G], the Tm was 64.1 °C; the “change of melting temperature, mutant” value is -4.7 °C; the “heat capacity change of unfolding” value amounted to 1.58 kcal/mol/K. Also, where the note is “68.8 °C”, the “ddG of mutation (higher = less stable)” value came out at 1.6 kcal/mol, the “heat capacity change of unfolding” value was determined as 1.58 kcal/mol/K and the “unfolding enthalpy (calorimetric)” value worked out at 121 kcal/mol.

As to MKALIVLGLVLLSVTVQGKVFERCELARTLKRLGMDGYRGISLANWMCLAKWESGYNTRATNYNAGDRSTDYGIFQINSRYWCNDGKTPGAVNACHLSCSALLQDNIADAVACAKRVVRDGQGIRAWVAWRNRCQNRDVRQYVQGCGV [P121G], the Tm amounted to 68.7 °C; the “change of melting temperature, mutant” value is -0.1 °C; the “heat capacity change of unfolding” value was 1.58 kcal/mol/K. Where the note is “68.8 °C”, the “ddG of mutation (higher = less stable)” value came to 0.1 kcal/mol, the “heat capacity change of unfolding” value worked out at 1.58 kcal/mol/K and the “unfolding enthalpy (calorimetric)” value is 120 kcal/mol.

As for MKALIVLGLVLLSVTVQGKVFERCELARTLKRLGMDGYRGISLANWMCLAKWESGYNTRATNYNPGDRSTDYGIFQINSRYWCNDGKTPGAVNACHLSCSALLQDNIADAVACAKRVVRDPQGIRAWVAWRNRCQNRDVRQYVQGCGV [A65P], the Tm worked out at 69.1 °C; the “change of melting temperature, mutant” value worked out at 0.3 °C; the “heat capacity change of unfolding” value amounted to 1.56 kcal/mol/K. For the same variant, for the setting “68.8 °C”, the “ddG of mutation (higher = less stable)” value was -0.1 kcal/mol, the “heat capacity change of unfolding” value stood at 1.56 kcal/mol/K and the “unfolding enthalpy (calorimetric)” value is 119 kcal/mol.

Take MKALIVLGLVLLSVTVQGKVFERCELARTLKRLGMDGYRGISLANWMCLAKWESGYNTRATNYNAGDRSTDYGIFQINSRYWCNDGKTPGAVNACHLSCSALLQDNIADAVACAKRVVRDPQGIRAWPAWRNRCQNRDVRQYVQGCGV [V128P]: the Tm worked out at 70 °C; the “change of melting temperature, mutant” value was 1.2 °C; the “heat capacity change of unfolding” value was found to be 1.57 kcal/mol/K. Also, under “68.8 °C”, the “ddG of mutation (higher = less stable)” value was -0.5 kcal/mol, the “heat capacity change of unfolding” value came to 1.57 kcal/mol/K and the “unfolding enthalpy (calorimetric)” value is 120 kcal/mol.

Take MKALIVLGLVLLSVTVQGKVFERCELARTLKRLGMDGYRGISLANWMCLAKWESGYNTRATNYNAGDRSTDYGIFQINSRYWCNDGKTGGAVNACHLSCSALLQDNIADAVACAKRVVRDGQGIRAWVAWRNRCQNRDVRQYVQGCGV [P89G P121G]: the melting temperature (Tm) amounted to 64.3 °C; the “change of melting temperature, mutant” value was -4.5 °C; the “heat capacity change of unfolding” value worked out at 1.58 kcal/mol/K. In addition, for the setting “68.8 °C”, the “ddG of mutation (higher = less stable)” value was determined as 1.6 kcal/mol, the “heat capacity change of unfolding” value is 1.58 kcal/mol/K and the “unfolding enthalpy (calorimetric)” value was found to be 120 kcal/mol.
